test: soluble on expression in E. coli; label from the status in PepcDB or PDB records

Row | Sequence | soluble on expression in E. coli
1 | MAHQEHFQFGYRRHRDQDRQDPARHPVVVVGAGPVGLSLAIDLAQRGQNVVLLDDADRIGEGSRAICFSKRALEVWDRLGVGAQMVEKGVVWQVGKIFRRDEMVYRFDLLPETGHKMPAFINLQQYYAEAFLVGRVQQLPQIDLRWRNKVTALAQHNDHAELTIETPDGPYRLAADYVIACDGARSSLRGMVGAEFAGEVFEDQFLIADVKMTAAFPTERWFWFDPPFHSGQSALLHRQPDDVWRIDLQIGPEADAAVERQPERVRPRIERMLGHGDFSFEWISIYKFQCRRMQRFLHERVIFAGDSAHQVSPFGARGANSGLEDGENLAWKLDLVLRGQAPASLLDSYDIERSQAADDNIRHSTRSTDFIAPHSKQERRLRDAVLALAHDVEFAKRMVNAGRLSTPSVYQSSLSTDDVDVWSSGPVPGAAMRDAPLRAADGTLVYLTEAFMQAGGGFVLLERANGAAAPVPQGVRSLRIGGDAPLRDDEGVFAARYDATPGAAYLLRPDGYVAARFRHPTQAAVDAALARACGRLEHHHHHH | not soluble
2 | MAHHHHHHMSSYDAMSAVSSNGAVMPEINLHPRLMTHRPESDSYTGSARHSSRSTRAVPTNAELAYAGVTAQDGVVQQLSSRSEERGSLAGPREVSAQSNSGHRALRAITACGSIDEPLQLSEPHQGRAIRDTPREQKPQQHQSQPTRSISHGVVARNAAGAGSSREPIRPGRSSCSSTPRIPSKHNDPYAHVTSVVQEYRQSRINALEAQYRVAHTHSNTSVSQGYDTRQSQSASPRSLEARRNASAHSRASARPRDGSWRMSSVSSRTRQNSPLPRAVEEEYLRGGVPRAALDAPHIRYAEALYNMYNSSSSSARRLACMSSMSSNMTTEYVPDVAKRIPDRFKYVPPTEEERRLHREATLRALEEWRRRQCARENAHCKGSEDMAAGGAAVELRNRNPPKNQSGTRSQQPQQAGHEEAAAWALQKGFDNTSDSFSGQARDSFTPSKKCSARKAKKIRSAAEQRDDYPTNEGAGEWERPQSSVGKRSGTLISRRQNGAGLRASSRKGRKSPTESARVEDGMKLNSFREKLLFDIAPPTVSIA | not soluble
3 | MGSDKIHHHHHHNEEIEKAVQPVEISFNTAVSKTTRATTLVNSAFTKFTAYAYSTTGAFADATKVNALISGAEFTKGENSAWGSGNSVFYWPATDQVSFFAFSPNTTKQLSWGAAVANTAPTLTYTVEGTVEKQEDLVVAEAMNKQKATSGSTEAVALNFKHALTKVGFKIKGEGSGVTYTLNKIVINAKNKGVYTYGATSTTNETTLGTWTIPSDATATAYTVEPTEALSITGADNGGTANETLVEADYTAMLIPQNLTGVTFEIYYKAEAGGAILCDKTTTPEEITFTDGTWTAGQSVAYVLTLKGVEKMSITGSVADSWDFTETPK | not soluble
4 | MTDEIISYQKAKLAKNLAISTASKWLFVHSSTGGSATNLSIAQYATLINGIQSAIKCQVILTAGKGERERAVELAEKLTDQNVVIYDKNDGLADFTRSLACADLFIAGSTGPLHIAGGLNIPTVGFYPSRLSATPRRWRPINQVDKHLAFCPPSGKQCEMDLTLISIEQALTSVIPFIKKMWQLSLEHHHHHH | soluble
5 | MSLTTFATEWEKQLELYPEEYRKAYRRVKRASEILLREPEPQVGLTPKEVIWTKNKTKLYRYIPKQEKTQRVPILLIYALINKPYIMDLTPGNSLVEYLVDRGFDVYMLDWGTFGLEDSHLKFDDFVFDYIAKAVKKVMRTAKSDEEGHHHHHH | not soluble
6 | AHHHHHHGSEKLEKTVDMNIQQMINLSVLELVKLGLKYGIFKAVSKKISYIDLLNQVDVPNKPLLKKLIDHLKLLGIIEETPTHLLLNSFSYEIRFPKEEHMYLLPDWIPSFEEIYRMVDFALITPNHPHVLMDFDKDADFWDLRLSSTFHEAYRILIAKLGEIGEGSRVLDIGCGSASPAYFGKLVGEEGEYVGVDYSPALLEIAKNRTEGLPVKLKEMDASLIKPKNKYDVAIMSFVLEYIENRRSALRNALDSLESGGKLIIVDAFKDEFRNVEALEFFEGLNSAFREYPSKKYIKEVILDEGFEVKFGDYGKAILLIEKL | soluble
7 | MAHHHHHHMMYSKNDEFNVKKEMDMNLKCDNVNLDIWNTSFLNNETLNEDIFIHIGNKLLKMYYTTNHNIPSETLYSLLYEMKNGYNNVPYHNSIHAAMVTHHCNVLVSNLNTANILRDNELGALFVASLGHDIGHFGRTNIFLKNCCNFLSIIYNDKSILENYHCSYLFNILLKDENNIFKNEDPKCLLALRQQIIELILATDMSKHIKILAQFRIKSIKIKSYIEKNIILCLKMIIKAADLSHNCVDWSEHYQWVKRLVNEFYYEGDELFQMGYKINPLFDRNCHNNFIQIQRTFLKELVYPLIISLKTLDNTSITQDMINNVKRNYSKWTKI | soluble
8 | MGSDKIHHHHHHMSYLKISDTIVETFRFIHYEQSNFLNRLHGGDMLFFLVETGMISASKVAMGTTLLASLDDVVFKKPVRLGDIVKVRAKTVYIGNTSLEVEVRAFVRDEEVVSAYATYVKVDDLLRPTPVNVKIMAESEDDKRKIDEAKKRRENRLSKIVNRQKMRFYVDDITDGLRYRISNVIHVSPELTYDGRIMSAGKLLKLMDDLGGIICLRYLDHNSSNLYDNSFNAVVTVAVKGLAFYSPIRLNDIILIRAGLVYVGNTSADILINVVREDLNGAKEHVATAYFTYVRVDKDGKPIKIPEYTPVTEREKRLYEEALTRRGLRK | not soluble
9 | MSEVLTRGFRFRPADEEVTDYLMRKTQSPEFSCFIKTIDLYDKDPWVLGHVRDPCYNHYEWYYFVKKNPLGNEYLDKPRLNGFEHPRLKWDVLKQIHDALSSGQNVPPSVFTYGFRFHPTDQELLSLYLTPKAHSPDFSCFIRERESYMPWSHGFLNMLDLLFTRTVNGTTL | soluble
10 | MGSDKIHHHHHHARRNILRQTWMSKANSEIVANGRMKPLFLVGLTPGEYKMKKMVMQEAKLYGDIIVVDMNDNYEELTYKSLAILLYGVSKAPRYQMIGKIDEDVMFFPDKLTELYDQGFIDATPLRIYGLKMQSGANIFRDKTHRWYVPESSYSCSKFPEYVSGMLYMVTWEAAQQIIKSTKYRDFIQVEDVFLTGILAEDLGISVKNLP | not soluble
11 | MSREANPFKKMPTILMPDELMAKALRRGEKVANEMRQKELPWLLKARFVEEHKVRTIASVVADNLQKVIDKTPPVRKLPKFYQEMVEVLVGIDDFKKSMGAFKWASELVRKLGNEYARKIRKARTPQQAGKLRKEFVGRVKSILEQIHPEMAFVAVAREKLKDLPTFKDLPTVVIAGYPNVGKSTLLKKLTGADVEINSYPFTTKGINVGYIGEIQMVDTPGLLDRPLYERNDIELQAILALNYLANLILFIIDASEFCGYTIEEQINLLKEIKDLFKAPIVVAINKIDLVDEERVKEIEEKLKEVGIEEILKISADKDIGLDELKERLKKIAIKEFLKDKDAENKELECLEHHHHHH | soluble
12 | MSLKKIKRITAYQVDLPLHEGSYNWSGGKTVNIFDSTIVAIETDDGLIGYGECCPLGPFYLPSYAEGVRAGIKELGPHLIGLDATDHSYINMVMDQCLKGHPYVKSPIDIACWDIKGKAANMPISKLLGGTYDEDFVLYRAISQNEPDAMASNVKKYRDEGYRRFQLKVGGSPNEDIERIRSVASKLEDGDKLIADANTGWLAHEALRVIRAVNDIDVYIEQPCQSYEECLSVRQKTTHPFILDESVKNIGVLVRGYHDKAMDAVNIKISKFGGITKAVLARDLCTELGIAMTIEDSWGGDIVTATIAHLAHSTQPKLLFTATDFNSYVTVHIADGAPQRNNGRMKSSGEGHHHHHH | not soluble
13 | MTELEAAMGMIIDVFSRYSGSEGSTQTLTKGELKVLMEKELPGFLQSGKDKDAVDKLLKDLDANGDAQVDFSEFIVFVAAITSASHKYFEKTGLK | soluble
14 | MAEQRSNIMRLPPSGYRLHRFPPLAQPVAVDEEFGLDNQGWQESQVDIQQQLEAGFQQGLQQGHEEGLRQGIEQGKQQGLLDGQKEGFQKGFVSGEQAGKQGFLEAAKPVNDLFQALSRWQSEKEQQQRHMICELVQKVAQQVIRAELTLMPQQILALVDETLSAMPGKAETVTVHLNPQDLERITHINADLPKSWKLVANNELPIGGCQLVTDDAEADASCDSRLEACMDNVKQHLLDEVSIPQVESENELEHHHHHH | soluble
15 | MVKLLTINSHSWMEEDPQKKLEILGKTILENDYDVICVQEVNQLLHSEPAKDLPNYCQVAGTPAIHKDNYALQLVTFLLEQERVYYWSWAYNHIGYDRFQEGVAILSKTPLVSQGILISDVDDEHDYHTRRALLGKTKIDQEDIAIVSLHMSWWNKGFQGEWNKLERVLSNLKLPLLLMGDFNNPYENEGYQAILKSSLKLQDSHQSAKITYGKATIQKEIDGWQGNQEALKVDYVFLSSDWQVEKSEVIFDGKHYPMISDHCGLACQANLNK | not soluble
16 | MVKAGKKVKGASKVRENETEEEKKIRLEMEALAADEAERKAQEAARVALRERQLREQRYAHLNGIKIHNQWRKIMRMAKVEELRREIEILSQNHEREVDRKDAIMQMLDRDLEEAEEQYSLAVRSHMLVVDNLLDLQYQRMRALEAEFAADLKALEDEFETERTEIVNAHTRQRKDMGDMIAAMEGEFADAEAELRQEYEAQREEIKNRNSEEYNVLKIQLEGIIEELEKSFELAHRAYLESTEHRTNTFRTLTKDDAKAALKIERQMRKLVRLQEALQHWRTKIATNGREWEERNRALRNEKEIMARHYAKLKSSMDAFRAGQAERLKQLSLASSGAMETLRGKLAVAENVLKLAELARKYETEQEKVLPFWNPAQAVPSGEQGDEEAAAQAEAEAAALEPSVAELGELGLRASMPEDSSKEAPGPSKSSAGPGKPKFSSYGLDPSSGSEVDEWDYLNCFFRRYNKALLDKTAIDKEKSRLERENADLRSILKQYLDGISVNDDVLNNPVNPLLVVNNRLQITLTERNKARAAAMAQRAAAATGAGLSVTGQGAGGGGQKQLVEVQVVSRVS | not soluble
17 | MNLPEVSEKLIEQLNHGSTKAFDKIYHTYYLYLCAIAVYYVHDKRVAGEIVNDVFVSFWQNRHHITYPALPYLRRAIQNASISYLRSSAFNERIMTEQMEEIWAFLENHILSSDNPLQALESSEMNEIILRKVEELPAKCRAVFKASLYEGKSYSEIAEEQNINVATVRVQMKIALTKLRESLGTPYMIAILMFL | not soluble
18 | MGSDKIHHHHHHMHRFKYDHPLDDGVRRRVMEELAALERRHHVRVLYACESGSRAWGFASPDSDYDVRFLYVHRPQWYLQVEPQRDVIELPLDDELDISGWELRKALQLLNRSNPTMFEWLQSPLVYRADEKAAAALRELMADFHSLGRCRWHYLSMARKNHRVHLQGETVRLKKYLYVLRPLLAVRWLDAGKGLPPMRFADLAAATVEDDGLAAEINHLLAIKMAAGEAQLGGRLPKLDAFIASMLAEPVPPLPGRHDGDVRRLDRLLQEWVMGSVREDGSAACEI | not soluble
19 | MGSSHHHHHHSSGLVPRGSHMSSTMSADQSNRARPVIRIKENPEDFTVEEVADIPKSDNGKYTIIKAEIIDWDTNRIVEEIASALRISRKRISYAGTKDKRARKIQYFCINAPVDVSVLAFKGFRIIDRFRSDHYLRLGDLTANHFRIRFQGASDDYIEQRYEKMMECGGFPNYFGQQRFGSRRRNTHDVGRLIVTGRYEDAVRLYLYDERYDIEDYRREFIETLDYNRALEKFPRTLRFERSIIGYYAQHHTFKGAFDALPKNLSIMFVHAYQSYLFNRMLSLRIEKYGLNRAIPGDTAFPVDRYFNPDKSRPVEVNEVNVDTINQLIERDRLRVALPIIGSEVGPDQSDFGEIEKKILEEEHVDRSMFRNSEYPHLSSTGDRRIVSAKPVDFSVSNSVMDFTLGRGIYATTLISTFGDLVDFDAESDGF | soluble

Source: the DeepSol protein solubility set
